Measured values as given in the RNAGym collection of RNA variant scans (doi:10.1021/acssynbio.7b00057).

B1: Pistol ribozyme (parent)
chain: GGGUCGUUGUUCCAUAAUCGCGUGGAUAUGGCACGCAAGUUUCUACCGGGCACCGUAAAUGUCCGACUGGAGCCGUUCGGGCGGCUAUAAACAGACCUCAGGCCCGAAGCGUGGCGGCACCUGCCGCCGGUGGUAAAAAAGAUCGGAAGAGCACACGUCU

Variants of: B1
Assay: aptazyme ON/OFF ratio, guanine; higher = stronger switching; co-transcriptional cleavage with and without guanine

Compared with U7A U8G G9U U10G U11A C12A C13U, U7A U8G G9U U10G U11A C12A C13A is lower in “aptazyme ON/OFF ratio” value: 1.48 for the first, 1.16 for the second.

Compared with U7A U8G G9U U10G U11A C12A C13G, U7A U8G G9U U10G U11C C12A is lower in “aptazyme ON/OFF ratio” value: 1.39 for the first, 1.19 for the second.

Compared with U7A U8G G9U U10C U11G C12G C13U, U7A U8G G9U U10C U11G C12G C13G is higher in “aptazyme ON/OFF ratio” value: 1.18 for the first, 1.26 for the second.

Going from U7A U8G G9U U10C U11G C12G C13A to U7A U8G G9C U10C U11A C12G, the “aptazyme ON/OFF ratio” value falls from 1.36 to 1.23.

Going from U7A U8G G9C U10C U11A C12U to U7A U8G G9U U10C U11A C12U C13U, the “aptazyme ON/OFF ratio” value rises from 1.13 to 1.36.

First: U7A U8G G9U U10C U11A C12U C13G
Second: U7A U8G G9U U10C U11A C12U C13A
The “aptazyme ON/OFF ratio” value of the first is lower: 1.32 for the first, 1.41 for the second.

Going from U7A U8G G9C U10C U11G C12G C13A to U7A U8G G9C U10C U11G C12G C13U, the “aptazyme ON/OFF ratio” value falls from 1.18 to 1.09.

Going from U7A U8G G9C U10C U11G C12G C13G to U7A U8G G9C U10G U11A C12G C13U, the “aptazyme ON/OFF ratio” value rises from 1.18 to 1.46.

Going from U7A U8G G9C U10G U11A C12G C13A to U7A U8G G9C U10G U11A C12G C13G, the “aptazyme ON/OFF ratio” value rises from 1.33 to 1.39.

Compared with U7A U8G G9U U10A U11A C12G, U7A U8G G9U U10A U11A C12A is lower in “aptazyme ON/OFF ratio” value: 1.33 for the first, 1.2 for the second.

First: U7A U8G G9U U10A U11A C12U
Second: U7A U8G G9U U10A U11G
The “aptazyme ON/OFF ratio” value of the first is lower: 1.32 for the first, 2.03 for the second.

Compared with U7A U8G G9U U10A U11A, U7A U8G G9U U10A U11C is lower in “aptazyme ON/OFF ratio” value: 2.58 for the first, 1.06 for the second.

First: U7A U8G G9C U11A C12G
Second: U7A U8G G9C U11A C12A
The “aptazyme ON/OFF ratio” value of the first is lower: 1.34 for the first, 1.73 for the second.

Compared with U7A U8G G9C U11A C12U, U7A U8G G9C U10C U11G C13G is lower in “aptazyme ON/OFF ratio” value: 1.53 for the first, 1.26 for the second.

First: U7A U8G G9C U10C U11G C13U
Second: U7A U8G G9C U10C U11G C13A
The “aptazyme ON/OFF ratio” value of the first is lower: 1.23 for the first, 1.25 for the second.

Going from U7A U8G G9C U10G U11C C13G to U7A U8G G9C U10G U11C C13A, the “aptazyme ON/OFF ratio” value rises from 1.08 to 1.1.

Compared with U7A U8G G9C U10G U11C C13U, U7A U8G G9C U10C U11G is higher in “aptazyme ON/OFF ratio” value: 1.04 for the first, 1.26 for the second.

First: U7A U8G G9C U10C U11C
Second: U7A U8G G9C U10C U11C C12G C13G
The “aptazyme ON/OFF ratio” value of the first is lower: 0.976 for the first, 1.08 for the second.

Going from U7A U8G G9C U10C U11C C12G C13A to U7A U8G G9C U10C U11C C12G C13U, the “aptazyme ON/OFF ratio” value falls from 1.29 to 1.07.

Compared with U7A U8G G9C U10C U11G C12U, U7A U8G G9C U10C U11G C12A is higher in “aptazyme ON/OFF ratio” value: 1.03 for the first, 1.06 for the second.

Compared with U7A U8G G9C U10C U11G C12G, U7A U8G G9U U10C U11A C12A C13A is higher in “aptazyme ON/OFF ratio” value: 1.16 for the first, 1.26 for the second.

First: U7A U8G G9U U10C U11A C12A C13G
Second: U7A U8G G9U U10C U11A C12A C13U
The “aptazyme ON/OFF ratio” value of the first is lower: 1.37 for the first, 1.47 for the second.

Compared with U7A U8G G9U U10C C12A, U7A U8G G9U U10C C12U is higher in “aptazyme ON/OFF ratio” value: 1.41 for the first, 1.66 for the second.

Compared with U7A U8G G9U U10C C12G, U7A U8G G9U U10C U11A C12G is higher in “aptazyme ON/OFF ratio” value: 1.24 for the first, 1.61 for the second.

Going from U7A U8G G9U U10C U11A C12U to U7A U8G G9U U10C U11A C12A, the “aptazyme ON/OFF ratio” value falls from 1.72 to 1.63.

First: U7A U8G G9U U10C U11C C12U C13U
Second: U7A U8G G9U U10C U11C C12U C13A
The “aptazyme ON/OFF ratio” value of the first is higher: 1.23 for the first, 1.14 for the second.

First: U7A U8G G9U U10C U11C C12U C13G
Second: U7A U8G G9U U10G U11A C12G C13U
The “aptazyme ON/OFF ratio” value of the first is higher: 1.2 for the first, 1.02 for the second.

Compared with U7A U8G G9U U10G U11A C12G C13G, U7A U8G G9U U10G U11A C12G C13A is lower in “aptazyme ON/OFF ratio” value: 1.38 for the first, 1.13 for the second.

First: U7A U8G G9C U11G C12G
Second: U7A U8G G9C U11G C12A
The “aptazyme ON/OFF ratio” value of the first is lower: 1.66 for the first, 1.67 for the second.

Going from U7A U8G G9C U11G C12U to U7A U8G G9U U10C U11A C13G, the “aptazyme ON/OFF ratio” value falls from 1.43 to 1.33.

Compared with U7A U8G G9U U10C U11A C13A, U7A U8G G9U U10C U11A C13U is lower in “aptazyme ON/OFF ratio” value: 1.44 for the first, 1.33 for the second.

Compared with U7A U8G G9U, U7A U8G G9C U11C C13U is lower in “aptazyme ON/OFF ratio” value: 3.18 for the first, 1.44 for the second.

Compared with U7A U8G G9C U11C C13G, U7A U8G G9C U11C C13A is higher in “aptazyme ON/OFF ratio” value: 1.1 for the first, 1.37 for the second.

First: U7A U8G G9U U10A C12U C13A
Second: U7A U8G G9U U10A C12U C13U
The “aptazyme ON/OFF ratio” value of the first is higher: 1.32 for the first, 1.31 for the second.

Going from U7A U8G G9U U10A C12U C13G to U7A U8G G9C U11A C13A, the “aptazyme ON/OFF ratio” value rises from 1.36 to 1.44.

First: U7A U8G G9C U11A C13G
Second: U7A U8G G9C U11A C13U
The “aptazyme ON/OFF ratio” value of the first is lower: 1.15 for the first, 1.36 for the second.

Compared with U7A U8G G9U U10G C12G C13A, U7A U8G G9U U10G C12G C13U is lower in “aptazyme ON/OFF ratio” value: 1.37 for the first, 1.3 for the second.

First: U7A U8G G9U U10G C12G C13G
Second: U7A U8G G9C U11G C12A C13G
The “aptazyme ON/OFF ratio” value of the first is lower: 1.11 for the first, 1.26 for the second.

Going from U7A U8G G9C U11G C12A C13A to U7A U8G G9C U11G C12A C13U, the “aptazyme ON/OFF ratio” value falls from 1.29 to 1.28.

First: U7A U8G G9C U10G U11G C13U
Second: U7A U8G G9C U10G U11G C13A
The “aptazyme ON/OFF ratio” value of the first is higher: 1.31 for the first, 1.19 for the second.

First: U7A U8G G9C U10G U11G C13G
Second: U7A U8G G9U U10A U11A C12A C13G
The “aptazyme ON/OFF ratio” value of the first is lower: 1.21 for the first, 1.25 for the second.

Compared with U7A U8G G9U U10A U11A C12A C13U, U7A U8G G9U U10A U11A C12A C13A is lower in “aptazyme ON/OFF ratio” value: 1.42 for the first, 1.24 for the second.
